Assay: yeast display, Sf9 membrane polyspecificity reagent, FACS + sequencing; frameworks hold sequencing errors
Summary of the method: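 Using colony PCR, genes from sorted yeast display clones were amplified, then sequenced on MiSeq at 2 × 250 and filtered by CDR length. The clones had been stained with 10% biotinylated, detergent-solubilized Sf9 membrane reagent for 1 hour at 4 °C and sorted by FACS into low and high (top ~1%) gates on anti-HA and streptavidin fluorescence. Polyreactivity labels come from the gate of origin.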

Row | Sequence | polyreactivity (PSR sort gate)
1 | QVQLVESGGGLVQAGGSLRLSCAASGNTFRFYTMGWYRQAPGKERELVAAINSSGRTNYADSVKGRFTISRDNAKNTVYLQMNSLKPEDTAVYYCAADYYQWSSFLGVYEYDYWGQGTQVTVSS | low polyreactivity
2 | QVQLVETGGGLVKAGGSLRLSCAASGRIFLVNDMGWYRQAPGKERELVARINGGITNYADSVKGRFTISRDNAKNTVYFQMISLKPEDTAVYYCAARSRKYYSYYYWGQGTQLTVSS | high polyreactivity
3 | QVQLVESGGGLVQAGGSLRLSCAASGSIFTTNAMGWYRQAPGKERELVAAISSRGTSTYYADSVKGRFTISRDNAKNTVYLQMNSLKPEDTAVYYCAADYVYASRHFEYWGQGTQVTVSS | high polyreactivity
4 | QVQLVESGGGLVQAGGILRLSCAASGRIFKYNAMGWYRQAPGKERELVAVITSGGSTYYADSVKGRFTISRDNAKNTVYLQMNSLKPEDTAVYYCAKKYYKVHKFDYCGQGTQVTVSS | low polyreactivity
5 | QVQLVESGGGLVQAGGSLRLSCAACGSTFRYNTMGWYRQATGTEREVVAAISSAATTNYADSVKGRFTISRDNAKNTVYLQLNSLNPEDTALYYCARGYSWSVGYPRVQDMDYWGQGTQVTVSS | high polyreactivity
6 | QVQLVESGGGLVQAGGSLRLSCAASGSIFTTYTMGWYRQAPGKERELVAAITSSSGSTYYADSVKGRFTISRDHAKNTVYLQMNSLKPEDTAVYYCNATYSAAVDYWGQGTQVTVSS | low polyreactivity
7 | QVQLVESGGGLVQAGGSLRLSCAASGRSFLGYPMGWYRQAARKERELVAAISSSGTSTYYADSVKGRFTISRDNAQNTVYLQMNSLKPEETSVYYCAKYAYSYYPPAYDYWGQGTKVTVSS | high polyreactivity
8 | QVQLVESGGGLVQAGGSLRLTCAASGRTFKFNAMGWDRQAPGKERELVAGITWTGSTTSYADSVKGRFTISRDNAKNTVYLQMNSLKPEDTSVYYCAADKIRFWYHGFYYRGQGTQVTVSS | low polyreactivity
9 | QVQLVASGGGLVQAGGSVRLSCAASGFIVNYYAMGWYRQAPGKEGELLAAISSGGSTYYADSVKGRFTISRDNAKNTVYLQMNSLKPEDTAVYYCAARYTDLRLARYYYDYYYWGQGTQVTVSS | high polyreactivity
10 | QVQLVESGGGLVQAGGSLRLSCAASGSIFGVNVMGWYRQAPGKERELVASISGGGSTDYADSVKGRFTISRDNAKNTVYLQMNSLKPEDTAVYYCNAKYWWSNYYWGQGTQVTVSS | low polyreactivity
11 | QVQLVESGGGIVQAGGSLRLSCAASGLIFYTYAMGWYRQAPGKERELVATISWDVDSTNYADSVKGRFTISRDNAKNTVYLQMNSLKPEDTAGYYCAVDSTFDSYWYWVDYYEYGYWGQGTQVTVSS | high polyreactivity
12 | QVQLVESGRGLLQAGGSLRLSCASSGGIFPKYAMGWYRQAPGKEREFVASISYRGGSTYYADSVKGRFTISRDNAKNTVYFQMNSLKPDDTAVFYCAKPTYRFYWGDFDYWGQGSQVTVSS | low polyreactivity
13 | QVQLVESGGGLVQAGGSLRLSCAASGRTFGSKALAWYRPAPGKERELVAAITGGGSTYYADSVKGRFTISRDNAKNTVYLQMNSLKPEDTAVYYCAARGTSGWYRYGYWGQGTQVTVSS | high polyreactivity
14 | QVQIVETGGGLVQAGGSLRLSCDASGSIFPDYAKGWYRQAPRKERELLASISWDGGSTYYADSVKGRFTISRDNAKNTVYLQMNSLKPEDTAVYYCATEWLVGGGVTVDYWGQGTQVSVSS | low polyreactivity
15 | QVQLVESGGGLVQAGGSLRLSCAASGRIFTPYAMGWYRQAPRKERELVAVIRDGSTYYADSVKGRFTISRDNAKYNVYLQMKSLIPEDTAVYYCRYDIWVWWSGAYDYWGQGTQVTVSS | low polyreactivity
16 | QVQLVESGGGLVQAGGSLRLSCAASGSIYHVYALGWYRQAPGKERELVATISSGGSTYYADSVKGRFTISRDNEKNTVYLQMNSLKPEDTAVYYCNADWFLYGGWYGYGYWGQGTQVTVSS | low polyreactivity
17 | QVQLVESGGGLVQAGGRLRISCAASGRIFTYNTLGWSRQEPGKERELVAAIRTGGSTNYADSVKGRFTISRDNAKITVNLQMNSLKPEDTAVSYCNTVRHSTSDYWYDFWGQGTQVTLSS | low polyreactivity
18 | QVQLVESGGGLVQAGGSLRLSCAASGGIFGLYTMGWYRQAPGKERELVAAISKTGGSTYYADSVKGRFTISRDNAKNTVYLQMNSLNPEDTAVYYCAADGPYDDYEYWGQGTQVTVSS | high polyreactivity
19 | QVQLVETGGGLVQAGGSLRLSCAASGRTLWSYVMGWYIQAPGKERELVAAITSGGTTYYADSVKGRFTISRDNAKNTFYFQMNSLKPEDTAVYSCNVYTKFVYAYDYWGQGTQVTVSS | high polyreactivity
20 | QVQLVESGGGLVQAGGSLRLSCAASGRTFRANTMGWYRQAPGKERELVAAISDRGGSTYYADSVKGRFTISRDNAKNTVYLQMNSLKPEDTAVYYCAARNTPAQLDYWGQGTQVTVSS | low polyreactivity
21 | QVQLVESGGGLVQAGGSLRLSCAASGRTFIRYTTGWYRQAPGTERELVAAITSTGRTYYADSVKGRFTISRDNAKNTVYLQMNSLKPEDTAVYYCAAEAGYGDYYYGYDYWGQGTQVTVSS | low polyreactivity
22 | QVQLVESGGGLVQAGGSLRLSCAASGRTFYVNTMGWYRQAPGKEREFVAAISYSGGRTYYADSVKGRFTISRDNAKNTVYLQMNSLKPEDTAVYYCATRINSWSAYTKYDYWGQGTQVTVSS | high polyreactivity

Row | Sequence | polyreactivity (PSR sort gate)
23 | KVQLVESGGGLVQAGGSLRLSCAASGRTFWYYAMGWYRLSPGKERELVAVITSVSSTYYADSVKGRFTISRDNAKNTVYLQMNSLKPEDTAVYYCAVGRTYRRYSAASYNYWGQGTQVTVSS | high polyreactivity
24 | QVQLVESGGGLVQAGGSLRLSCAASGSTFDSYAMGWYRQAPGKERELVAAITTTGGSTFYADSVKGRFTISRDNAKNTVYLQMNSLKPEDTAVYYCADDDGWQEFEYWGQGTQVTVSS | low polyreactivity
25 | QVQLVESGGGLVQAGGSLRLSCAASGRTFTTYAMGWSRQAPGKERELVAAISSGGSTHYADSVKGRFTISRDNAKYTVYLQMNSLKPEDTAVYYCAADKYYYRTSGQEMDYWGQGTQVTVSS | high polyreactivity
26 | QVQLVESGVGLVQAGGSLRLICAASGSIFGYNAMGWYRQAPGKERELVAAISRSGGRTYYADSVKGSFTISRDNAKNTVYLQMNSLKPEDTAVYYCAASRPGLRTPGQMGYWGQGTQVTVSS | high polyreactivity
27 | QVQLVESVGGLVQAGGSLRLSCAASGSIFAYNTMGWYRQAPGKERELVAAIRSRGGSTYYADSVKGRFTISRDNAKNTVYIQMNSLKPEDTPVSSCNAVGRARTLGSNTYGYWGQGTQVTVSS | high polyreactivity
28 | QVQLVESGGGLVQAGGSLRLSCAASGSSFYTNAMGWYTQAPGKERELVAAISSSGDSTYYADSVKGRFTISRDNANNTVYLQMNSLKPEDTGVYYCNADRRSYNGFRYYYWGQGTQVTVSS | low polyreactivity
29 | QAQLKDSCGGLVQAGGSLRLSCPASGNNTSEYYMGCCRQAPGKGREFVDAIDYGGTTNYADNVKGRFTISRDNAKNTVYLQMNSLRPEDTALYYCAASWDTIGLFAYWGQGSQVTVSS | high polyreactivity
30 | QVQLVESGGGLVQAGGSLRLSCAASGFIFTQNGMGWYRQAPGKERELVAAISWSAGGTYYADSVKGRFTISRDNAKNTVYLQMNSLKPEDTAVYYCNARVYNVFREFNSWGQGTQVTVSS | low polyreactivity
31 | QVQLVESGGGLVQAGGSLRLSCAASGITFFYYAMGWYRQAPGKERELVAAISTSGGRTYYADSVKGRFTISRDNAKNTVYLQMNSLKPEDTAVYYCAARSRVPPAGPRYDYWGQGTQVTVSS | high polyreactivity
32 | QVQLVESGGGLVQAGGSLRLSCAASGRTFRIYAVGWYRQAPGKERELVATIDSGGSTNYADSVKGRFTISRDNAKNTVYLQMNSLKPVDTAVYYCNAEDKPWYYLAGQAEYDSWGQGTQVTVSS | low polyreactivity
33 | QVQLVESGGGLLKAGGSLRLSCAASGIIFDSYAMGWYIQAPGKERELVAAITSDSGRTYYADSVKGRFTISRDYAKNTFYLQMNSLKPEDTAVYYCAKRWEGPYDYWGQGSQVTVSS | low polyreactivity
34 | QVQLVESGGGLFQAGGRLRLSCAPSGGTLPKYAMAWYRHAPGKERELVARITWNDGTTYYADSVKGRFTISRDNAKNTVYLQMNSLIPEDTAVYYCNTDRAYWFLYPFSYYYWGQGTQVTVSS | low polyreactivity
35 | QVQLVVSGGGLVQAGGSLRLSCAASGSIFNVYAMGWYRPAPGKARELVAAITNGDSTNYADSVKGRFTISRDTAKNTVYLQMHSLKPEDTAVYYCNARAPSEYYGLEYDDWGQGTQGTVSS | low polyreactivity
36 | QVQLVESGGGLVQAGGSLRLSCAASGSTSQTYAMGWYRQAPGKERELVASMTRSGVRTYYADSVKGRFTISRDNAKYTVYLQMNSLKPEDTAVYYCAAKYSYGFYRTGYYWGQGTQVTVSS | high polyreactivity
37 | QVQLVDTGGGFVQAGGSLRLSCAASGRTFPYYAMGLYRQAPGKERELVAAMTRGVRTQYADSVKGRFTISRDNAKNTVYLQMNSLKPEDTAVYYCAREDWGSYSDMDSWGQGTQVTVSS | low polyreactivity
38 | QVQLVESGGGLVQAGGSLRLSCAASGSIFWNNAMGWYRQAPGKERELVAGISSAGSTNYADSVKGRFTISRDNAKNTVYLQMNILKPEDTAVYYCAAVYYGGFSDYDYWGQGTQVTVSS | low polyreactivity
39 | QVQLVESGGGLVQAGGSLRLSCAASGGTIVWNAMGWYRQAPGKEREFVAAITSSGGSTYYADSVKGRFTISRDNEKNTVYLQMNSLKPEDTAVYYCNVDTHSSYEFNSWGQGTQVTVSS | low polyreactivity
40 | QVQLVESGGGLVQAGGSLRLSCAASGSTFWINAMGWYRQAPGKERELVADISHSAGNTYYADSVKGRFTISRDNAKNTVYLQMNSLKPEDTAVYYCAARRWGVRSGDYYWGQGTQVTVSS | low polyreactivity
41 | QVQLVESGGGLVQAGGSHRLSCASSGSTFLPNAMGWYRQPPGKERELVAAITNSGGNTYADSVKGRFTISRDNAKNTVYLEMNSLKPEDTAVYYCNARFSPTGWARGNDYWGQGTQVTVSS | low polyreactivity
42 | QVQLVESAGGLVQAGGSLRLSCAASGLTFSIYALGWYRQAAGKERELVAAITGRGGRTYYADSVKGRFPISRDNAKNTVYLQMNTLKPDDTAVYYCAARYRGTDFDYWGQGTQVTVSS | high polyreactivity
43 | QVQLQESGGGLVQACSSLRLSCAASGTIFYYIMGWYRQAPGKERELVATIDLGGGTNYADSVKGRFTISRDDAKNTVYLQMSSLKPEDTAEYYCAVYLYRLTFFYYWGQGNQVTVSS | high polyreactivity

Source: the nanobody polyreactivity screen of Harvey et al. (2022)
